Test system: MS2 coat protein
Experiment: apparent KD of MS2 coat protein; designed switch direction (-1 OFF switch, 1 ON switch): 1; higher = weaker reporter binding
Method in brief: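 Each step of the titration lasted 0.8–1.5 h at the lowest concentration and 10–20 min at the highest. The protein, SNAP-549-labelled MS2 coat protein, went from 0.7 or 1.5 nM doubling to 3 µM over RNA switches transcribed on Illumina chips by stalled E. coli RNA polymerase. Normalised cluster fluorescence was curve-fitted, and the per-design median over clusters is given as apparent KD.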

[1] = input ligand: microRNA oligo, concentration not stated
[2] = Eterna round: R95, input ligand: FMN 200 uM
[3] = Eterna round: R95, input ligand: microRNA oligo, concentration not stated
[4] = Eterna round: R95, input ligand: none

Row | Sequence | apparent KD of MS2 coat protein (input ligand: FMN 200 uM) [nM] | apparent KD of MS2 coat protein [1] [nM] | apparent KD of MS2 coat protein (input ligand: none) [nM] | apparent KD of MS2 coat protein [2] [nM] | apparent KD of MS2 coat protein [3] [nM] | apparent KD of MS2 coat protein [4] [nM]
1 | GCGAGCGUACUUGCUACAUGAGGAUCACCCAUGUUCGUUGGACAGGAUAUGGUACCGUUUCGGUACCAGAAGGGUUCACAUGUG [JL SSNG3 3.78] (Eterna round: R96, puzzle: Same State NG 3) | 142 | 158 | 242 | – | – | –
2 | GCGAGCGUACUUGCUACAUGAGGAUCACCCAUGUUCGUUGGACAGGAUAUGGUACCGUUUCGGUACCAGAAGGGUUCAUCAUGA [JL SSNG3 3.76] (Eterna round: R96, puzzle: Same State NG 3) | 75.7 | 147 | 241 | – | – | –
3 | GCGAGCGUACUUGCUACAUGAGGAUCACCCAUGUUUAUUGGACAGGAUAUGGUACCGUUUCGGUACCAGAAGGGUCCACAUGUA [JL SSNG3 3.85] (Eterna round: R96, puzzle: Same State NG 3) | 124 | 198 | 549 | – | – | –
4 | GCGAGCGUACUUGCUACAUGAGGAUCACCCAUGUUUCAUGGACAGGAUAUGGUACCGUUUCGGUACCAGAAGGGUUCACAUGUG [JL SSNG3 3.81] (Eterna round: R96, puzzle: Same State NG 3) | 88.7 | 68 | 92.1 | – | – | –
5 | GCGAGCGUACUUGCUACAUGAGGAUCACCCAUGUUUUAUGGACAGGAUAUGGUACCGUUUCGGUACCAGAAGGGUUCACAUGUA [JL SSNG3 3.83] (Eterna round: R96, puzzle: Same State NG 3) | 116 | 150 | 426 | – | – | –
6 | GCGAUCUACCGGAAGGUAGAUCGGCUUGUACAUGAGGAUCACCCAUGUCUGUACAAGCUUUUUGCUCGUCUUAUGGG [salish99-hsa-208a-66] (Eterna round: R96, puzzle: Sensor for hsa-mir-208a) | 1150 | 27.9 | 713 | – | – | –
7 | GCGCAAUGAUGUGACAUGAGGAUCACCCAUGUAACCUCAUGUAAGGAUAUCGGGAAAAAAAAAACCGAGAAGGUAUGGUCACGC [AK SSNG3-V2-27.2] (Eterna round: R96, puzzle: Same State NG 3) | 145 | 61.4 | 138 | – | – | –
8 | GCGCAGCUGGGUGAGGAUAUCGGUGGUAAAACAUGAGGAUCACCCAUGUCCGAAGCUCGGACUUCCGAGAAGGCGCCCGGCUGCA [Ridigea] (puzzle: Same State 2) | – | – | – | 13 | 72.3 | 115
9 | GCGCAGCUGGGUGAGGAUAUCGGUGGUAAAACAUGAGGAUCACCCAUGUCCGGAGCUCGGACUUCCGAGAAGGCACCCGGCUGCA [Erisais] (puzzle: Same State 2) | – | – | – | – | 27.2 | –
10 | GCGGAACCUGACAUGAGGAUCACCCAUGUUCCGGAAACGGCACAGGAUAUCUGUCCGAAAAGGUCAGAGAAGGGUGGAAACCGC [Fiskers NG3ss - 98] (Eterna round: R96, puzzle: Same State NG 3) | 68 | 179 | 193 | – | – | –
11 | GCGGCGGCACGGCAGGAUAUGAUAAAACCUACAUGAGGAUCACCCAUGUCGGCGGGUUGCAAAAUUCAGAAGGGCCCUGUAGGCC [Leorzaonis] (puzzle: Same State 2) | – | – | – | 16.6 | 34.6 | 38.6
